Laboratory results reported in paper PMC5356278, “Identification of residues important for the activity of aldehyde-deformylating oxygenase through investigation into the structure-activity relationship” (BMC Biotechnology, 2017).
Where a chain is given by its changes, count along the chain named. Names and notes keep the numbering of the source.

B1: cADO-sll0208 (sll0208) (Synechocystis sp. PCC 6803 substr. Kazusa; L148R) (protein)
chain: MPELAVRTEFDYSSEIYKDAYSRINAIVIEGEQEAYSNYLQMAELLPEDKEELTRLAKMENRHKKGFQACGNNLQVNPDMPYAQEFFAGLHGNFQHAFSEGKVVTCLLIQALIIEAFAIAAYNIYIPVADDFARKITEGVVKDEYTHRNYGEEWLKANFATAKEELEQANKENLPLVWKMLNQVQGDAKVLGMEKEALVEDFMISYGEALSNIGFSTREIMRMSSYGLAGV
notes: full gene in pET-28a(+) (NdeI/XhoI), E. coli BL21(DE3), nickel column; apo enzyme reconstituted with stoichiometric ferrous iron (diferrous form)
B2: cADO-sll0208 (sll0208) (Synechocystis sp. PCC 6803 substr. Kazusa; D49H/N123H) (protein)
chain: B1 chain with D49H, N123H, R148L
notes: as for B1
B3: cADO-sll0208 (sll0208) (Synechocystis sp. PCC 6803 substr. Kazusa) (protein)
chain: B1 chain with R148L
notes: as for B1
B4: cADO-1593 (1593) (Synechococcus elongatus PCC 7942 = FACHB-805; L146T) (protein)
chain: MPQLEASLELDFQSESYKDAYSRINAIVIEGEQEAFDNYNRLAEMLPDQRDELHKLAKMEQRHMKGFMACGKNLSVTPDMGFAQKFFERLHENFKAAAAEGKVVTCLLIQSLIIECFAIAAYNIYIPVADAFARKITEGVVRDEYTHRNFGEEWLKANFDASKAELEEANRQNLPLVWLMLNEVADDARELGMERESLVEDFMIAYGEALENIGFTTREIMRMSAYGLAAV
notes: codon-optimised synthetic gene, E. coli BL21(DE3), nickel column; apo enzyme reconstituted with stoichiometric ferrous iron (diferrous form)
B5: cADO-1593 (1593) (Synechococcus elongatus PCC 7942 = FACHB-805; F150Y/Q49H) (protein)
chain: B4 chain with Q49H, T146L, F150Y
notes: as for B4
B6: cADO-1593 (1593) (Synechococcus elongatus PCC 7942 = FACHB-805; F150Y/N123H/Q49H) (protein)
chain: B4 chain with Q49H, N123H, T146L, F150Y
notes: as for B4
B7: cADO-1593 (1593) (Synechococcus elongatus PCC 7942 = FACHB-805; F150Y) (protein)
chain: B4 chain with T146L, F150Y
notes: as for B4
B8: cADO-1593 (1593) (Synechococcus elongatus PCC 7942 = FACHB-805; W178R) (protein)
chain: B4 chain with T146L, W178R
notes: as for B4

Each protein was assayed on CCCCCCC=O (assay: purified protein). Conditions: NADH 750 uM, PMS 75 uM, catalase 1 mg/ml, ferrous ammonium sulfate 80 uM, 100 mM HEPES pH 7.2, 100 mM KCl.
Type: biochemical, Synechocystis sp. PCC 6803

**Q.** B1 was tested. Which Km did it give?
**A.** The Km was 320 ± 80 µM.

**Q.** What about the kcat of the same protein?
**A.** The kcat was 0.0152 ± 0.00133 s⁻¹.

**Q.** What about the kcat/Km of the same protein?
**A.** Its kcat/Km is 47.3 ± 5 M⁻¹ s⁻¹.

**Q.** Which Km does the source give for B2 here?
**A.** The Km was 380 ± 80 µM.

**Q.** What about the kcat of the same protein?
**A.** The kcat was 0.0138 ± 0.00133 s⁻¹.

**Q.** What about the kcat/Km of the same protein?
**A.** The kcat/Km was 36.3 ± 3.33 M⁻¹ s⁻¹.

**Q.** Which Km does the source give for B3 here?
**A.** The Km was 350 ± 70 µM.

**Q.** And the kcat?
**A.** The kcat was 0.00983 ± 0.000667 s⁻¹.

**Q.** And the kcat/Km?
**A.** Its kcat/Km is 28.2 ± 3.33 M⁻¹ s⁻¹.

Substrate: CCCCCCC=O
Test: purified protein
Type: biochemical, Synechococcus elongatus
Conditions: NADH 750 uM, PMS 75 uM, catalase 1 mg/ml, ferrous ammonium sulfate 80 uM, 100 mM HEPES pH 7.2, 100 mM KCl
Remark: another data set of the same source

**Q.** How did the Km turn out when B4 was run?
**A.** The Km was 340 ± 80 µM.

**Q.** What about the kcat of the same protein?
**A.** The kcat was 0.0157 ± 0.00133 s⁻¹.

**Q.** What about the kcat/Km of the same protein?
**A.** The kcat/Km was 46 ± 5 M⁻¹ s⁻¹.

**Q.** Which Km does the source give for B5 here?
**A.** Its Km is 330 ± 50 µM.

**Q.** And the kcat?
**A.** The kcat was 0.0145 ± 0.000667 s⁻¹.

**Q.** And the kcat/Km?
**A.** The kcat/Km was 44 ± 3.33 M⁻¹ s⁻¹.

**Q.** Which results are given for B6?
**A.** Km: 350 ± 20 µM; kcat: 0.0173 ± 0.000333 s⁻¹; kcat/Km: 49.5 ± 5 M⁻¹ s⁻¹

**Q.** With B7 as the protein, how does the Km read?
**A.** The Km was 200 ± 40 µM.

**Q.** What about the kcat of the same protein?
**A.** Its kcat is 0.0125 ± 0.000667 s⁻¹.

**Q.** What about the kcat/Km of the same protein?
**A.** The kcat/Km was 62.5 ± 6.67 M⁻¹ s⁻¹.

**Q.** What does the source list for B8?
**A.** Km: 340 ± 80 µM; kcat: 0.0302 ± 0.0025 s⁻¹; kcat/Km: 88.7 ± 6.67 M⁻¹ s⁻¹
